Results published in paper PMC7228753 (Science Advances, 2020).

B1: IRF5-CPP1 (peptide)
peptide: Ac-IRLQISNPYLKFIPLKRAIWLIK-NH2

Legend:
[1] = molecular target: wild-type (WT) IRF5, tagged with either His or biotin at the C terminus (human); test: FRET or BRET
IRF5 [2] = molecular target: T1, IRF5 (Homo sapiens, UniProt Q13568); format: cell-based
endogenous IRF5 = endogenous IRF5 (Homo sapiens, UniProt Q13568); format: cell-based
IRF5 [3] = molecular target: T1, IRF5; format: cell-based; remark: listed apart in the source
IRF5 [4] = molecular target: T1, IRF5; format: cell-based; remark: listed apart in the source
[5] = molecular target: IRF5 [change], tagged with either His or biotin (human); test: FRET or BRET

| Molecule | Kd [1] [µM] | effect on R848-induced IRF5 homodimerization (IRF5 [2]) | in-cell FRET signal with TRITC-IRF5 (endogenous IRF5) | inhibition of R848-induced IRF5 nuclear translocation in CD14+ monocytes (IRF5 [3]) | inhibition of R848-induced IRF5 nuclear translocation in CD19+ B cells (IRF5 [4]) | IC50 [5] [µM] |
| --- | --- | --- | --- | --- | --- | --- |
| wild-type (WT) IRF5, tagged with either His or biotin at the C terminus (natural protein) | 4.21 | – | – | – | – | – |
| IRF5-CPP9: Negative control for IRF5-CPP5; lacks the IRF5-specific sequences (MANLGYWLLALFVTMWTDVGLCKKRPKP) | – | Neither of these two peptides inhibited | minimal FRET signal | neither peptide provided IRF5-specific inhibition | neither peptide provided IRF5-specific inhibition | – |
| Ac-IKVMWPILFIIKLVHSDKKI-NH2 [IRF5-CPP8] | – | Neither of these two peptides inhibited | minimal FRET signal | neither peptide provided IRF5-specific inhibition | neither peptide provided IRF5-specific inhibition | – |
| B1 | – | – | – | – | – | > 75 |
